The text below walks through data of US20250171542A1 (ADEPT THERAPEUTICS, published 2025).

Broadly, the EC50 is the concentration that produces a half-maximal response. Read a low EC50 as an effect from little substance.

The target in assay [1] is mouse PD-L1 (Sino Biological, Cat #50010-M08H) (mouse, UniProt Q9EP73 19-238). Nature of the assay: ELISA.
The target of assay [2] is T1, rat PD-L1 (Sino Biological, Cat #80450-R08H) (rat, UniProt D4AE25 19-239).
T1 construct: not shown: The vendor's polyhistidine tag
T1 sequence (D4AE25 entry or part of it R08H R08H limits assumed): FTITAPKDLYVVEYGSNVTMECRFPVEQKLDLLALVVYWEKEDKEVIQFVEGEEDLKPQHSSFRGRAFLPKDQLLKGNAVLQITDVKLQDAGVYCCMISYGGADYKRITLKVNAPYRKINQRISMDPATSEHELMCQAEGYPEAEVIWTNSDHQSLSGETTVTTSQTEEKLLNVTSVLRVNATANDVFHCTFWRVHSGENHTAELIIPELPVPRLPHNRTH
Nature of the assay: ELISA.

In assay [3] the target is T2, canine PD-L1 (Acro Biosystems, Cat #PDL-C52H4) (canine, UniProt E2RKZ5 19-236).
T2 construct: not shown: The vendor's tag, probably a polyhistidine tag
T2 sequence: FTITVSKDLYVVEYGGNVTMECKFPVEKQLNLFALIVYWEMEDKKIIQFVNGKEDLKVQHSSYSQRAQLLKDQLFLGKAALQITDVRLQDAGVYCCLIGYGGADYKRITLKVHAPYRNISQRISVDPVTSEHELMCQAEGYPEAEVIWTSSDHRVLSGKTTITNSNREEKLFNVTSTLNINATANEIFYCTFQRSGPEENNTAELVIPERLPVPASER
In words: ELISA. (In general: ELISA stands for enzyme-linked immunosorbent assay.)

Assay [4] has as its target T3, CD80 (Sino Biological, Cat #10698-H08H) (UniProt P33681 35-242).
T3 sequence (looked up): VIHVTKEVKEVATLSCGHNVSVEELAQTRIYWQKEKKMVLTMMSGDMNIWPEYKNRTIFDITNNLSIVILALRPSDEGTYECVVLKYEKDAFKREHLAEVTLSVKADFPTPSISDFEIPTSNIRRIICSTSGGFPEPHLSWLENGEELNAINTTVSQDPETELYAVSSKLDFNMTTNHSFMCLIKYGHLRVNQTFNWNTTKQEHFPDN
Nature of the assay: ELISA.

For assay [5], the target named is T4, CD86 (Sino Biological, Cat #10699-H08H) (UniProt P42081 24-245).
T4 sequence (looked up): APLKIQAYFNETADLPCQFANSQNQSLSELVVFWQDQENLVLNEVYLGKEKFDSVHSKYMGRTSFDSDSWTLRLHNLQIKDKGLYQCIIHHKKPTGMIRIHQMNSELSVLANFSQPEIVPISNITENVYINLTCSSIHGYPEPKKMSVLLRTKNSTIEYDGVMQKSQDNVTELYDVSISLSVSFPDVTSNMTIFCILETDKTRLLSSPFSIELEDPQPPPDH
In words: ELISA.

Assay [6] addresses T5, BH-H2 (Sino Biological, Cat #11559-H08H) (UniProt O75144 19-258).
T5 sequence (looked up): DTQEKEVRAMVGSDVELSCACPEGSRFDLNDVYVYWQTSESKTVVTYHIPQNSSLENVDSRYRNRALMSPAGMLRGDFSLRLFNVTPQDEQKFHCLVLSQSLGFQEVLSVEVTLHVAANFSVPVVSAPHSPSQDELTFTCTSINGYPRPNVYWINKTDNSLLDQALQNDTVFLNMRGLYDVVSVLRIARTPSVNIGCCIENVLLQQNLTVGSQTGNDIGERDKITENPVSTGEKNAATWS
Nature of the assay: ELISA.

For assay [7], the target named is T6, B7-H3 (Sino Biological, Cat #11188-H08H) (UniProt Q5ZPR3 29-461).
T6 sequence (looked up): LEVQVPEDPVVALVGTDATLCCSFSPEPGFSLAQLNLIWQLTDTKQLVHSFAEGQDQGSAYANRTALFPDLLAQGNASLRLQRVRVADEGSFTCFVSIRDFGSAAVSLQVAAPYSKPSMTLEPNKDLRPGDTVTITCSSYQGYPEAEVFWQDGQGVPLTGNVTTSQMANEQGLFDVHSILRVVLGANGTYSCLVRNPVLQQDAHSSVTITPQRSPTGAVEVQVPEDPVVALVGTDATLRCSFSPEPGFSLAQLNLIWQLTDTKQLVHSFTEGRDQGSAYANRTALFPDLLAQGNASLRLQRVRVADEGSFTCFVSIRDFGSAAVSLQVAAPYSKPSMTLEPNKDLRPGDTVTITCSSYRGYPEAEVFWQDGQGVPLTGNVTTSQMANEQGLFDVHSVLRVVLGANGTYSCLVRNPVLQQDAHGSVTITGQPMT
Nature of the assay: ELISA.

The target in assay [8] is T7, PD-L2 (Sino Biological, Cat #10292-H08H) (UniProt Q9BQ51 20-219).
T7 sequence (looked up): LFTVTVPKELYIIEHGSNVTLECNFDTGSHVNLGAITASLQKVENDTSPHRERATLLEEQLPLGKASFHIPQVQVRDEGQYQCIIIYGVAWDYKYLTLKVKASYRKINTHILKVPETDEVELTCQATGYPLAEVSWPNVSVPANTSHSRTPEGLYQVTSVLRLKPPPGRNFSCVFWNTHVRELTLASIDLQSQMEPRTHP
Nature of the assay: ELISA.

Assay [9] concerns the target T8, human PD-L1 expressed on cell surface (human, UniProt Q9NZQ7 19-290). Nature of the assay: cell-based or functional assay.
The target of assay [10] is T8, human PD-L1 expressed on cell surface. In words: flow cytometry, MDA-MB-231-GFP cells. As to the method: Cells were then resuspended in FACS buffer (1×DPBS/1% FBS) at 10⁶/ml concentration. One hundred microliter (100 μl) of cells were aliquoted into a single well in 96 well plates. The antibodies to be tested were serially diluted at 1:3 fold starting at 15 ug/mL and were then added into each well. The antibodies were mixed with cells and the mixtures were incubated on ice for 1 hour. […] After washing with FACS buffer, stained cells were resuspended at diluted […] (Biolegend, Cat #420404, used at 1:100 dilution) and analyzed on Guava 11HT (Luminex). Data was analyzed using Flowjo software.
Anti-HEL isotype control (Biolntron) was used as negative control.

Sequence of mouse PD-L1 (Sino Biological, Cat #50010-M08H) (Q9EP73 19-238 limits assumed, stated change not applied): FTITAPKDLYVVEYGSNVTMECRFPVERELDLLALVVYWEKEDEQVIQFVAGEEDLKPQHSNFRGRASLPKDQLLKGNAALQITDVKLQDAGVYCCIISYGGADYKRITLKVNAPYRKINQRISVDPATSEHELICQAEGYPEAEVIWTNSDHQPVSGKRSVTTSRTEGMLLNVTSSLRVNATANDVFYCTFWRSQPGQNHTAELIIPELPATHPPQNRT
T8 sequence (Q9NZQ7 19-290 limits assumed): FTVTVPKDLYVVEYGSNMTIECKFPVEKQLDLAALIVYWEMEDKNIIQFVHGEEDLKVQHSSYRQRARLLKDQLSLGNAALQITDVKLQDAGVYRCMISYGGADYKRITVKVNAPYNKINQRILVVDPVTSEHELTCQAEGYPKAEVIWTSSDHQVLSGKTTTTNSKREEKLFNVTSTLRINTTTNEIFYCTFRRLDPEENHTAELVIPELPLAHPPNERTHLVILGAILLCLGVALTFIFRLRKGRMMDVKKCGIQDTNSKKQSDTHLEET

B1: 57B10 (antibody, human IgG1, V domains shown)
VH: QEQLEESGGGLVQPEGSLTLTCTASGFSFSDDYYMSWVRQAPGKGLEWIASIYTGSLNTYYATWAKGRFTISLTSSTTVTLQMTSLTAADTATYFCARRNKNADWGHFDLWGPGTLVTVSS
VL: YDMTQTPASVEVAVGGTVTIKCQASQSISTALAWYQQKPGQPPKLLIYAASTLASGVPSRFRGSGSGTDFTLTISDLECADAATYYCQQGWTVSSLDNAFGGGTEVVAM
Turning to B1, the binding result in assay [1], in assay [2], in assay [3], in assay [4], in [5] and in assay [6] was “no binding” each time. The binding result in assay [7] and in assay [8] was “no binding” in each case. In assay [9], the “Internalization (%), FACS, 0.25 µg/ml, 2 h” value was 19.3%. Moreover, in assay [9], the “Internalization (%), FACS, 0.25 µg/ml, 4 h” value amounted to 16.5%. For the same molecule, in assay [9], the “Internalization (%), FACS, 0.5 µg/ml, 2 h” value was 11.1%. Besides, in assay [9], the “Internalization (%), FACS, 0.5 µg/ml, 4 h” value turned out to be 21.7%. The “Internalization (%), FACS, 1 µg/ml, 2 h” value in assay [9] was 12.7%. Besides, the “Internalization (%), FACS, 1 µg/ml, 4 h” value in [9] worked out at 15.6%. For the same molecule, in [9], the “Internalization (%), FACS, 2 µg/ml, 2 h” value came to 19.2%. The “Internalization (%), FACS, 2 µg/ml, 4 h” value in assay [9] was found to be 22.1%. In assay [10], the concentration for a half-maximal effect (EC50) stood at 4.82 nM.

B2: 57F11 (antibody, human IgG1, V domains shown)
VH: QEHLEESGGGLVQPEGALTLTCTASGFSFSGDYYMSWVRQAPGKGLEWIASIYTGSLNTYYATWAKGRFTISIASSTTVTLQVTSLTAADTATYFCARRTKNGDYGYFDLWGPGTLVTVSS
VL: YDMTQTPASVEVAVGGTVTIKCQASQSINDRLAWYQQKPGQPPKLLIYAASTLASGVPSRFKGSGSGTEFTLTISDLECADAATYYCQQGWTVSSLENAFGGGTEVVAK
B2: the binding result in [1], in [2], in assay [3], in [4], in assay [5] and in assay [6] was “no binding” each time. For the same molecule, the binding result in assay [7] and in assay [8] was “no binding” throughout. Further, the “Internalization (%), FACS, 0.25 µg/ml, 2 h” value in [9] stood at 17.9%. In addition, the “Internalization (%), FACS, 0.25 µg/ml, 4 h” value in assay [9] turned out to be 21.3%. For the same molecule, the “Internalization (%), FACS, 0.5 µg/ml, 2 h” value in [9] was 19.7%. For the same molecule, the “Internalization (%), FACS, 0.5 µg/ml, 4 h” value in [9] amounted to 14.7%. For the same molecule, the “Internalization (%), FACS, 1 µg/ml, 2 h” value in [9] stood at 16.7%. Besides, the “Internalization (%), FACS, 1 µg/ml, 4 h” value in [9] came to 16.8%. For the same molecule, the “Internalization (%), FACS, 2 µg/ml, 2 h” value in assay [9] was found to be 14.5%. Further, in [9], the “Internalization (%), FACS, 2 µg/ml, 4 h” value is 15.4%. The EC50 in [10] came to 1.24 nM.

B3: 69D10 (antibody, human IgG1, V domains shown)
VH: QEQLEESGGGLVQPEGSLTLTCTASGFSFSGDWYMSWVRQAPGKGLEWIASIYSGSLNTYYATWAKGRFTVSLTSSTTVTLQMTSLTAADTATYFCARRNKNADYGHFDLWGPGTLVTVSS
VL: YDMTQTPASVEVAVGGTVTIKCQASQSIGNALAWYQQKPGQPPKLLIYATSTLASGVPSRFKGSGSGTEFTLTISDLECGDAATYYCQQGWTVSSLDNAFGGGTEVVAK
Consider B3, for which the binding result in assay [1], in assay [2], in [3], in [4], in [5] and in assay [6] was “no binding” each time. Further, the binding result in assay [7] and in assay [8] was “no binding” each time. Moreover, the “Internalization (%), FACS, 0.25 µg/ml, 2 h” value in assay [9] came to 18.2%. Besides, the “Internalization (%), FACS, 0.25 µg/ml, 4 h” value in assay [9] was determined as 15.9%. The “Internalization (%), FACS, 0.5 µg/ml, 2 h” value in [9] was 16.2%. Also, the “Internalization (%), FACS, 0.5 µg/ml, 4 h” value in assay [9] turned out to be 18%. Also, the “Internalization (%), FACS, 1 µg/ml, 2 h” value in assay [9] is 15.9%. In assay [9], the “Internalization (%), FACS, 1 µg/ml, 4 h” value was 18.2%. In addition, in [9], the “Internalization (%), FACS, 2 µg/ml, 2 h” value was determined as 17.7%. Further, the “Internalization (%), FACS, 2 µg/ml, 4 h” value in [9] amounted to 21.2%. Moreover, the midpoint of the response in [10], the EC50, lay at 2 nM.

B4: 62E6 (antibody, human IgG1, V domains shown)
VH: QEQLEESGGDLVKPEGSLTLTCTASGFSFSGDYYMSWVRQAPGKGLEWIASIYTGSLNIYYATWAKGRFTISLTSSTTVTLQMTSLTAADTATYFCARRNKNADYGHFDLWGPGTLVTVSS
VL: YDMTQTPASVEVAVGGTVTIKCQASQSINDRLAWYQQKPRQPPKLLIYGASTLASGVPSRFKGSGSGTEFTLTISDLECVDAATYYCQQGWTVSSLDNAFGGGTEVVAK
Regarding B4, the binding result in assay [1] was “no binding”. In addition, the binding result in assay [2] is “no binding”. The binding result in assay [3] is reported as “no binding”. Besides, the binding result in assay [4] is given as “no binding”. In addition, the binding result in assay [5] is on record as “no binding”. For the same molecule, the binding result in assay [6] is “no binding”. In addition, the binding result in [7] is recorded as “no binding”. In [8], the binding result is on record as “no binding”. Further, in assay [9], the “Internalization (%), FACS, 0.25 µg/ml, 2 h” value amounted to 22.3%; the “Internalization (%), FACS, 0.25 µg/ml, 4 h” value amounted to 21%; the “Internalization (%), FACS, 0.5 µg/ml, 2 h” value worked out at 12.2%; the “Internalization (%), FACS, 0.5 µg/ml, 4 h” value was found to be 24%. Moreover, in assay [9], the “Internalization (%), FACS, 1 µg/ml, 2 h” value was 16.4%; the “Internalization (%), FACS, 1 µg/ml, 4 h” value is 17.7%; the “Internalization (%), FACS, 2 µg/ml, 2 h” value was determined as 16.1%; the “Internalization (%), FACS, 2 µg/ml, 4 h” value was found to be 17.9%. This molecule returned a concentration for a half-maximal effect (EC50) in assay [10] of 2.03 nM.
